According to publication PMC12855868, “Deep Mutational Scanning of FDX1 Identifies Key Structural Determinants of Lipoylation and Cuproptosis” (Nature Communications, 2025):
Blank lines part the entries; values can stand above or below the binder they belong to.

Assays:
[1] = target: T1, FDX1 WT (aa 61-184), N-terminal hexa-histidine tag (human), P10109; experiment: Temperature-Related Intensity Change (TRIC) fluorescence; 100 nM Red-Tris-NTA-labelled His-tagged FDX1 WT or variant as target, tagless LIAS serially diluted (10 points from 63 µM); anaerobic; 25 mM MOPS pH 7.5, 125 mM KCl, 125 mM NaCl, 5% glycerol, 0.05% Tween; 30 min at room temperature, read at 22 °C; Dianthus NT.23; settings: remark: other sources report otherwise
T1 chain: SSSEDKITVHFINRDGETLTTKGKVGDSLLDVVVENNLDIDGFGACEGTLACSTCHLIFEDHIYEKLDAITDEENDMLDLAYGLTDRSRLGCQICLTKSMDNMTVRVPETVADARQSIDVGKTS

[2] = target: T2, FDXR (a.a 33-491), tagless (human, UniProt P22570 33-491, labelled with the RED-NHS 2nd generation protein labeling kit); experiment: Temperature-Related Intensity Change (TRIC) fluorescence; 50 nM RED-NHS-labelled tagless FDXR as target, His-tagged FDX1 WT or variant serially diluted (11 points from 54-68 µM); anaerobic; 25 mM MOPS pH 7.5, 125 mM KCl, 125 mM NaCl, 5% glycerol, 0.05% Tween; 30 min at room temperature, read at 22 °C; Dianthus NT.23; settings: both partners purified
T2 construct: ferredoxin reductase (FDXR), human, residues 33-491, lacking the mitochondrial transit peptide; pDWSUMO; Cleavage of the SUMO tag by ULP1 leaves a Gly-His appendage at the N-terminus; also called ferredoxin reductase; mitochondrial NADPH-dependent ferredoxin reductase; source: E. coli BL21 (DE3), purified; not shown: His6-SUMO, N-terminal, cleaved
T2 sequence (looked up): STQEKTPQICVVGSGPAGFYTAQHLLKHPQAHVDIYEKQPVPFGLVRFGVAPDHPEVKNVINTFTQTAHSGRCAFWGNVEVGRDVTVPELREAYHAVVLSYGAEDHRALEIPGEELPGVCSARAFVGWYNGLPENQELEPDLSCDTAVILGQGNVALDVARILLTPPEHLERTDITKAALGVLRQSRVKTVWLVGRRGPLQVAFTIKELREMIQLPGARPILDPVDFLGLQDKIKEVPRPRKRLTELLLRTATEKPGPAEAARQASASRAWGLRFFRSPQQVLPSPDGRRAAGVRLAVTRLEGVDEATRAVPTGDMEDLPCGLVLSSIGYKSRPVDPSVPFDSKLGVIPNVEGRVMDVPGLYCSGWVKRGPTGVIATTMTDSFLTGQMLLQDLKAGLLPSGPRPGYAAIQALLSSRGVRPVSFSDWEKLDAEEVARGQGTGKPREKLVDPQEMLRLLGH

[3] = target: T3, LIAS (aa 28-372), tagless (UniProt O43766 28-372); experiment: Temperature-Related Intensity Change (TRIC) fluorescence; 100 nM Red-Tris-NTA-labelled His-tagged FDX1 WT or variant as target, tagless LIAS serially diluted (10 points from 63 µM); anaerobic; 25 mM MOPS pH 7.5, 125 mM KCl, 125 mM NaCl, 5% glycerol, 0.05% Tween; 30 min at room temperature, read at 22 °C; Dianthus NT.23; settings: both partners purified
T3 construct: lipoic acid synthase (LIAS), residues 28-372, lacking the mitochondrial transit peptide; pDWSUMO; Cleavage of the SUMO tag by ULP1 leaves a Gly-His appendage at the N-terminus; Carries reconstituted Fe-S clusters; also called lipoic acid synthase; source: E. coli BL21 (DE3) carrying pDB1282, purified, iron-sulfur clusters reconstituted; not shown: His6-SUMO, N-terminal, cleaved
T3 sequence (looked up): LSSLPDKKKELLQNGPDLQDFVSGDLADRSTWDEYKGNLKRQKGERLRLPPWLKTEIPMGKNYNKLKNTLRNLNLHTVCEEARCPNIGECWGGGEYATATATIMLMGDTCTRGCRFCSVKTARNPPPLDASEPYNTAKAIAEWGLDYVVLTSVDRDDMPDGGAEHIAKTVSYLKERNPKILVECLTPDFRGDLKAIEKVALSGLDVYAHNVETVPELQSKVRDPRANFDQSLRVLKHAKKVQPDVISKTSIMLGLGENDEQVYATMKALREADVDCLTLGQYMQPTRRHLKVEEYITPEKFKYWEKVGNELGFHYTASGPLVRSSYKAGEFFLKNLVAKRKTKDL

B1: LIAS (aa 28-372), tagless, O43766 28-372 (enzyme)
chain: LSSLPDKKKELLQNGPDLQDFVSGDLADRSTWDEYKGNLKRQKGERLRLPPWLKTEIPMGKNYNKLKNTLRNLNLHTVCEEARCPNIGECWGGGEYATATATIMLMGDTCTRGCRFCSVKTARNPPPLDASEPYNTAKAIAEWGLDYVVLTSVDRDDMPDGGAEHIAKTVSYLKERNPKILVECLTPDFRGDLKAIEKVALSGLDVYAHNVETVPELQSKVRDPRANFDQSLRVLKHAKKVQPDVISKTSIMLGLGENDEQVYATMKALREADVDCLTLGQYMQPTRRHLKVEEYITPEKFKYWEKVGNELGFHYTASGPLVRSSYKAGEFFLKNLVAKRKTKDL
Kd [1]: 3200 nM

B2: FDX1 WT (aa 61-184), N-terminal hexa-histidine tag (domain or fragment, human, UniProt P10109 61-184, looked up)
chain: SSSEDKITVHFINRDGETLTTKGKVGDSLLDVVVENNLDIDGFGACEGTLACSTCHLIFEDHIYEKLDAITDEENDMLDLAYGLTDRSRLGCQICLTKSMDNMTVRVPETVADARQSIDVGKTS
notes: ferredoxin 1 (FDX1), human, residues 61-184, lacking the mitochondrial transit peptide; pET28a; Carries a reconstituted Fe-S cluster; In the FDX1-LIAS TRIC assay it was labelled on the His tag with the Red-Tris-NTA 2nd generation dye; in the FDXR assay it was the unlabelled ligand; also called ferredoxin 1; source: E. coli BL21 (DE3) carrying pDB1282, purified, iron-sulfur cluster reconstituted; …
Kd [2]: 1500 ± 200 nM

B5: FDX1 D139A (aa 61-184), N-terminal hexa-histidine tag (domain or fragment, human, UniProt P10109 61-184, looked up)
chain: SSSEDKITVHFINRDGETLTTKGKVGDSLLDVVVENNLDIDGFGACEGTLACSTCHLIFEDHIYEKLDAITDEENDMLALAYGLTDRSRLGCQICLTKSMDNMTVRVPETVADARQSIDVGKTS
notes: ferredoxin 1 (FDX1), human, residues 61-184, lacking the mitochondrial transit peptide; pET28a; Carries a reconstituted Fe-S cluster; Labelled with Red-Tris-NTA dye in the LIAS assay only; source: E. coli BL21 (DE3) carrying pDB1282, purified, iron-sulfur cluster reconstituted; not shown: His6, N-terminal, kept
Kd [2]: 1500 ± 300 nM
Kd [3]: 4900 ± 600 nM

B6: FDX1 D139R (aa 61-184), N-terminal hexa-histidine tag (domain or fragment, human, UniProt P10109 61-184, looked up)
chain: SSSEDKITVHFINRDGETLTTKGKVGDSLLDVVVENNLDIDGFGACEGTLACSTCHLIFEDHIYEKLDAITDEENDMLRLAYGLTDRSRLGCQICLTKSMDNMTVRVPETVADARQSIDVGKTS
notes: as for B5
Kd [2]: 2100 ± 200 nM
Kd [3]: 2500 ± 600 nM

Further binders by falling Kd [2], results first:

Kd [2]: 2200 ± 300 nM
Kd [3]: 4500 ± 800 nM
B4: FDX1 D136R (aa 61-184), N-terminal hexa-histidine tag (domain or fragment, human, UniProt P10109 61-184, looked up)
chain: SSSEDKITVHFINRDGETLTTKGKVGDSLLDVVVENNLDIDGFGACEGTLACSTCHLIFEDHIYEKLDAITDEENRMLDLAYGLTDRSRLGCQICLTKSMDNMTVRVPETVADARQSIDVGKTS
notes: as for B5

Kd [2]: 1800 ± 300 nM
Kd [3]: 3200 ± 300 nM
B3: FDX1 D136A (aa 61-184), N-terminal hexa-histidine tag (domain or fragment, human, UniProt P10109 61-184, looked up)
chain: SSSEDKITVHFINRDGETLTTKGKVGDSLLDVVVENNLDIDGFGACEGTLACSTCHLIFEDHIYEKLDAITDEENAMLDLAYGLTDRSRLGCQICLTKSMDNMTVRVPETVADARQSIDVGKTS
notes: as for B5
